This is an account of results in the supplement of paper PMC9112550, “Optimization of the antimicrobial peptide Bac7 by deep mutational scanning” (BMC Biology, 2022).

The test system of this data set is Escherichia coli TOP10. Kind of data set: shrunken log2 fold change of peptide-encoding DNA abundance (4.5 h post-induction vs induction); higher = less antimicrobial activity (less host growth inhibition). To be noted: time post-induction: 4.5 h; library: site-saturation at positions 5, 18, 19, 20.
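Note: peptides expressed intracellularly from a pBAD plasmid library in pooled LB shake-flask culture, induced with 0.3% L-arabinose, DNA abundance read by NGS, three biological replicates, DESeq2 with apeglm shrinkage.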

Take RRIRIRPPRLPRPRPRPLRHPRP: the “shrunken log2 fold change” value was -0.172.
With RRIRERPPRLPRPRPRPIMVPRP the figure was -0.023; with RRIRGRPPRLPRPRPRPNMWPRP, 0.274.
Regarding RRIRVRPPRLPRPRPRPDHGPRP, the “shrunken log2 fold change” value is -0.0218.
With RRIRRRPPRLPRPRPRPDPSPRP the figure was 0.213; with RRIRMRPPRLPRPRPRPEPVPRP, 1.01.
With RRIRRRPPRLPRPRPRPYEKPRP the figure was 0.0137; with RRIRGRPPRLPRPRPRPFLPPRP, -0.148; with RRIRHRPPRLPRPRPRPSGLPRP, 0.0123.
Consider RRIRDRPPRLPRPRPRPVQDPRP, for which the “shrunken log2 fold change” value turned out to be 0.0144.
As to RRIRSRPPRLPRPRPRPNWNPRP, the “shrunken log2 fold change” value is -0.453.
Take RRIRTRPPRLPRPRPRPCYTPRP: the “shrunken log2 fold change” value was -0.0244.
With RRIRVRPPRLPRPRPRPRLCPRP the figure was 0.564; with RRIRWRPPRLPRPRPRPIVQPRP, 0.0969; with RRIRRRPPRLPRPRPRPAWNPRP, 0.141.
As to RRIRLRPPRLPRPRPRPTKTPRP, the “shrunken log2 fold change” value was -0.0526.
RRIRHRPPRLPRPRPRPLPNPRP: the “shrunken log2 fold change” value was -0.156.
With RRIRMRPPRLPRPRPRPFFPPRP the figure was -1.89e-05; with RRIRQRPPRLPRPRPRPKSQPRP, 0.32.
Regarding RRIRGRPPRLPRPRPRPTAFPRP, the “shrunken log2 fold change” value is 1.19.
Consider RRIRVRPPRLPRPRPRPKYKPRP, for which the “shrunken log2 fold change” value is -0.574.
Consider RRIRNRPPRLPRPRPRPGDAPRP, for which the “shrunken log2 fold change” value turned out to be 0.102.
As to RRIRFRPPRLPRPRPRPNACPRP, the “shrunken log2 fold change” value was -0.18.
With RRIRGRPPRLPRPRPRPTECPRP the figure was 0.267.
With RRIRYRPPRLPRPRPRPPEAPRP the figure was 0.0456; with RRIRVRPPRLPRPRPRPTCGPRP, 0.0207; with RRIRSRPPRLPRPRPRPFGTPRP, 0.0399.
Consider RRIRYRPPRLPRPRPRPYQPPRP, for which the “shrunken log2 fold change” value turned out to be 0.0857.
With RRIRLRPPRLPRPRPRPKQLPRP the figure was -0.0685; with RRIRIRPPRLPRPRPRPMVTPRP, -0.018.
Take RRIRIRPPRLPRPRPRPLNFPRP: the “shrunken log2 fold change” value was -0.434.
In the case of RRIRHRPPRLPRPRPRPWWGPRP, the “shrunken log2 fold change” value is -0.0666.
With RRIRLRPPRLPRPRPRPRLAPRP the figure was 0.624; with RRIRLRPPRLPRPRPRPHICPRP, -0.162.
In the case of RRIRMRPPRLPRPRPRPTKKPRP it was 0.0359; in that of RRIRGRPPRLPRPRPRPPDVPRP, 0.0671; in that of RRIRDRPPRLPRPRPRPAWQPRP, 0.861.
Regarding RRIRERPPRLPRPRPRPENLPRP, the “shrunken log2 fold change” value is -0.226.
In the case of RRIRMRPPRLPRPRPRPNKQPRP it was 0.0442; in that of RRIRRRPPRLPRPRPRPCHYPRP, 0.00952; in that of RRIRMRPPRLPRPRPRPRETPRP, 1.49.
Take RRIRRRPPRLPRPRPRPLCTPRP: the “shrunken log2 fold change” value came to 0.354.
With RRIRNRPPRLPRPRPRPVSWPRP the figure was 0.162; with RRIRERPPRLPRPRPRPSPQPRP, -0.0688.
With RRIRQRPPRLPRPRPRPVELPRP the figure was 4.07e-05; with RRIRVRPPRLPRPRPRPQMFPRP, -0.0716.
With RRIRDRPPRLPRPRPRPLDWPRP the figure was 0.0834; with RRIRQRPPRLPRPRPRPCRDPRP, 0.0161.
In the case of RRIRLRPPRLPRPRPRPILIPRP, the “shrunken log2 fold change” value stood at 0.198.
Consider RRIRTRPPRLPRPRPRPVQGPRP, for which the “shrunken log2 fold change” value was 0.165.
In the case of RRIRCRPPRLPRPRPRPSEYPRP it was -0.497.
In the case of RRIRVRPPRLPRPRPRPGQQPRP it was 0.026.
With RRIRQRPPRLPRPRPRPFHMPRP, the “shrunken log2 fold change” value is -0.0421.
With RRIRFRPPRLPRPRPRPETAPRP the figure was 0.577; with RRIRERPPRLPRPRPRPWICPRP, -0.378.
RRIRDRPPRLPRPRPRPMHFPRP: the “shrunken log2 fold change” value is -0.142.
As to RRIRTRPPRLPRPRPRPSNKPRP, the “shrunken log2 fold change” value was -0.916.
In the case of RRIRARPPRLPRPRPRPDRRPRP it was 0.086; in that of RRIRGRPPRLPRPRPRPAYKPRP, -0.202.
On to RRIRARPPRLPRPRPRPVQAPRP, for which the “shrunken log2 fold change” value turned out to be 0.312.
In the case of RRIRHRPPRLPRPRPRPYYSPRP it was -0.191; in that of RRIRRRPPRLPRPRPRPEDHPRP, 0.122; in that of RRIRARPPRLPRPRPRPTQDPRP, 0.974.
On to RRIRDRPPRLPRPRPRPVAGPRP, for which the “shrunken log2 fold change” value was determined as 0.851.
With RRIRPRPPRLPRPRPRPFVTPRP the figure was -0.102; with RRIRRRPPRLPRPRPRPDQHPRP, 0.552.
In the case of RRIRKRPPRLPRPRPRPMCEPRP it was 0.12.
For the sequence RRIRRRPPRLPRPRPRPGFWPRP, the “shrunken log2 fold change” value was determined as 0.333.
In the case of RRIRIRPPRLPRPRPRPHPQPRP it was -0.0725; in that of RRIRTRPPRLPRPRPRPETFPRP, -0.4; in that of RRIRDRPPRLPRPRPRPPYKPRP, -0.1.
With RRIRVRPPRLPRPRPRPNRHPRP the figure was -0.195; with RRIRRRPPRLPRPRPRPDFAPRP, 0.39; with RRIRYRPPRLPRPRPRPYQNPRP, -0.467.
For RRIRGRPPRLPRPRPRPRVCPRP, the “shrunken log2 fold change” value was found to be 1.1.
With RRIRWRPPRLPRPRPRPGDDPRP the figure was 0.351; with RRIRFRPPRLPRPRPRPCWGPRP, 0.00445.
With RRIRRRPPRLPRPRPRPTIEPRP the figure was 0.212; with RRIRKRPPRLPRPRPRPAPDPRP, 0.598.
With RRIRERPPRLPRPRPRPMTGPRP the figure was -0.0422; with RRIRHRPPRLPRPRPRPDMKPRP, -0.0644.
In the case of RRIRARPPRLPRPRPRPQSHPRP, the “shrunken log2 fold change” value was -0.162.
In the case of RRIRTRPPRLPRPRPRPTELPRP it was -0.0329; in that of RRIRWRPPRLPRPRPRPVQVPRP, 0.0298.
Consider RRIRCRPPRLPRPRPRPGWFPRP, for which the “shrunken log2 fold change” value was 0.0546.
In the case of RRIRYRPPRLPRPRPRPQNNPRP it was -0.86.
As for RRIRNRPPRLPRPRPRPSHYPRP, the “shrunken log2 fold change” value is -1.22.
With RRIRMRPPRLPRPRPRPYWDPRP the figure was -0.0427; with RRIRWRPPRLPRPRPRPYARPRP, 0.101; with RRIRIRPPRLPRPRPRPTHWPRP, 0.133.
On to RRIRWRPPRLPRPRPRPWHVPRP, for which the “shrunken log2 fold change” value is -0.201.
With RRIRWRPPRLPRPRPRPYRVPRP the figure was 0.00439; with RRIRERPPRLPRPRPRPENPPRP, 0.142.
For the sequence RRIRCRPPRLPRPRPRPMDDPRP, the “shrunken log2 fold change” value is -0.194.
On to RRIRVRPPRLPRPRPRPLHQPRP, for which the “shrunken log2 fold change” value was found to be 0.0791.
In the case of RRIRIRPPRLPRPRPRPNELPRP it was -0.056; in that of RRIRKRPPRLPRPRPRPRNFPRP, 0.731.
In the case of RRIRTRPPRLPRPRPRPPYHPRP it was -0.541; in that of RRIRVRPPRLPRPRPRPMMLPRP, -0.0127; in that of RRIRHRPPRLPRPRPRPPDPPRP, 0.832.
In the case of RRIRNRPPRLPRPRPRPIMVPRP it was 0.00732; in that of RRIRPRPPRLPRPRPRPNLQPRP, 0.0751; in that of RRIRVRPPRLPRPRPRPYSCPRP, -0.00112.
With RRIRSRPPRLPRPRPRPSKNPRP, the “shrunken log2 fold change” value was -0.306.
In the case of RRIRRRPPRLPRPRPRPTKSPRP, the “shrunken log2 fold change” value came out at 0.226.
With RRIRRRPPRLPRPRPRPDQMPRP the figure was -0.0181; with RRIRIRPPRLPRPRPRPLRGPRP, 0.694; with RRIRGRPPRLPRPRPRPQIAPRP, 1.94.
For RRIRNRPPRLPRPRPRPWCCPRP, the “shrunken log2 fold change” value stood at 0.007.
In the case of RRIRRRPPRLPRPRPRPDRKPRP it was -0.145; in that of RRIRVRPPRLPRPRPRPGTQPRP, -0.183; in that of RRIRHRPPRLPRPRPRPEKQPRP, -0.0365.
As for RRIRMRPPRLPRPRPRPQRMPRP, the “shrunken log2 fold change” value is 0.583.
Take RRIRPRPPRLPRPRPRPAIQPRP: the “shrunken log2 fold change” value was -0.00944.
With RRIRKRPPRLPRPRPRPVWHPRP the figure was 0.0861; with RRIRHRPPRLPRPRPRPYPCPRP, -0.152.
In the case of RRIRHRPPRLPRPRPRPLVLPRP it was -0.0931; in that of RRIRCRPPRLPRPRPRPGQYPRP, -0.479; in that of RRIRWRPPRLPRPRPRPTQYPRP, 0.0537.
RRIRDRPPRLPRPRPRPDFLPRP: the “shrunken log2 fold change” value amounted to 0.136.
In the case of RRIRKRPPRLPRPRPRPPKIPRP, the “shrunken log2 fold change” value amounted to 0.405.
With RRIRTRPPRLPRPRPRPYVFPRP, the “shrunken log2 fold change” value was -0.394.
Turning to RRIRTRPPRLPRPRPRPRVRPRP, the “shrunken log2 fold change” value was 2.2.
With RRIRQRPPRLPRPRPRPTHTPRP, the “shrunken log2 fold change” value turned out to be 0.258.
Consider RRIRIRPPRLPRPRPRPETRPRP, for which the “shrunken log2 fold change” value was -0.0624.
